From US20250092135A1 (NANJING LEADS BIOLABS, published 2025) come the findings set out here.

The target in experiment [1] is T1, human MUC16 protein endogenously expressed on cells (human, UniProt Q8WXI7 1-14507).
T1 construct: whole, on cells; also called MUC16 on OVCAR3 cells; MUC16 in ovarian carcinoma tissue
Put plainly: flow cytometry, OVCAR3 cells (endogenous human MUC16), PE anti-human IgG Fc secondary, MFI; EC50 table under the plot, unit from the axis Conc.(nM). As to the method:
(1) Whether the anti-CD3/anti-MUC16 bispecific antibodies in the present invention could bind to the MUC16 protein endogenously expressed on human ovarian carcinoma cells (OVCAR3) (Cell Bank of Type Culture Collection Committee of the Chinese Academy of Sciences, Cat #TCHu228) was determined by cell binding experiments.
The experiments were performed using flow cytometry. OVCAR3 cells were digested, centrifuged and collected. The cells were resuspended in a PBS solution, and seeded into a 96-well plate (Corning, Cat #3799) at 1×10⁵ cells/well. The 96-well plate was centrifuged and then the supernatant was discarded. 100 μL of the serially diluted test bispecific antibody (at a maximum concentration of 200 nM, 5-fold dilution from 100 nM, 9 concentration points in total) was added to the OVCAR3 cells. The plate was incubated at 4° C. for 30 min and centrifuged (1000 rpm, 5 min), and then the supernatant was discarded. 100 μL of PBS solution was added to each well, and the cells were washed twice. 100 μL of fluorescent secondary antibody R-PE-conjugated AffiniPure Goat Anti-Human IgG, Fcγ Fragment Specific (Jackson ImmunoResearch, Cat #109-116-098) diluted in a ratio of 1:200 was then added. The cells were incubated at 4° C. for 30 min. After the cells were washed twice with the PBS solution, 100 μL of PBS solution was added to each well to resuspend the cells, and finally, fluorescence signals were detected using a BD Accuri C5 (BD Bioscience) flow cytometer according to the manufacturer's instructions. REGN4018 was used as a positive control.
For orientation: Flow cytometry measures light scatter and fluorescence of single cells or particles in a stream.

In experiment [2] the target is T2, rhesus monkey MUC16 protein (ECT_TM RhMuc16) on 293T cells (rhesus monkey).
T2 chain: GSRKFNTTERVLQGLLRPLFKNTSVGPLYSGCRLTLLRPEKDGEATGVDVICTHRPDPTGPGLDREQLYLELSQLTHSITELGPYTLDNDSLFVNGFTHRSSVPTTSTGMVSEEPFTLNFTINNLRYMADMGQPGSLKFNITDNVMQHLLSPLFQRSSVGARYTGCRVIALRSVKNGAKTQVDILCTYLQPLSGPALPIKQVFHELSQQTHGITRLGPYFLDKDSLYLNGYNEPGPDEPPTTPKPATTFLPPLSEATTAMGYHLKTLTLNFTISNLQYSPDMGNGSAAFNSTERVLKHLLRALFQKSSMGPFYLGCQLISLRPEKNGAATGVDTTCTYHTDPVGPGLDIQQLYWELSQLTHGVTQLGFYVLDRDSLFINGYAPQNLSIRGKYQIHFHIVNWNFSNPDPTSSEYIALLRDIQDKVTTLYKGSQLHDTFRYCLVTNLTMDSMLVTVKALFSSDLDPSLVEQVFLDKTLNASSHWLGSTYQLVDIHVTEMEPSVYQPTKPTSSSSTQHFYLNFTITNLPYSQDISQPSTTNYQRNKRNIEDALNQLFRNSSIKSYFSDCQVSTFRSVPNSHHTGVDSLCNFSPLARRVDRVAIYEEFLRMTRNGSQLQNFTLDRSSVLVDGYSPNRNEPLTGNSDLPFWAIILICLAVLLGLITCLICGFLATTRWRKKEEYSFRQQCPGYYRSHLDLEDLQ
The experiment can be described thus: flow cytometry, 293T/rhesus MUC16 cells as printed on the sheet and in the legend (the example, paragraph 611, speaks of cynomolgus MUC16), PE anti-human IgG Fc secondary, MFI; EC50 table under the plot, unit from the axis Conc.(nM); curve still rising at the top concentration of 100 nM. As to the method:
Referring to the flow cytometry described above, the serially diluted test bispecific antibody (at an initial concentration of 100 nM, 5-fold dilution, 9 points) was added to the cells, and the plate was incubated at 4° C. for 30 min. The cells were washed twice with PBS, and then fluorescent secondary antibody R-PE-conjugated AffiniPure Goat Anti-Human IgG, Fcγ Fragment Specific was added. The cells were incubated at 4° C. for 30 min. The cells were washed twice with PBS and then resuspended, and finally, fluorescence signals were detected using a BD Accuri C5 (BD Bioscience) flow cytometer.

Experiment [3] concerns the target T3, human MUC16 protein (ECT_TM huMuc16) on 293T cells (human).
T3 chain: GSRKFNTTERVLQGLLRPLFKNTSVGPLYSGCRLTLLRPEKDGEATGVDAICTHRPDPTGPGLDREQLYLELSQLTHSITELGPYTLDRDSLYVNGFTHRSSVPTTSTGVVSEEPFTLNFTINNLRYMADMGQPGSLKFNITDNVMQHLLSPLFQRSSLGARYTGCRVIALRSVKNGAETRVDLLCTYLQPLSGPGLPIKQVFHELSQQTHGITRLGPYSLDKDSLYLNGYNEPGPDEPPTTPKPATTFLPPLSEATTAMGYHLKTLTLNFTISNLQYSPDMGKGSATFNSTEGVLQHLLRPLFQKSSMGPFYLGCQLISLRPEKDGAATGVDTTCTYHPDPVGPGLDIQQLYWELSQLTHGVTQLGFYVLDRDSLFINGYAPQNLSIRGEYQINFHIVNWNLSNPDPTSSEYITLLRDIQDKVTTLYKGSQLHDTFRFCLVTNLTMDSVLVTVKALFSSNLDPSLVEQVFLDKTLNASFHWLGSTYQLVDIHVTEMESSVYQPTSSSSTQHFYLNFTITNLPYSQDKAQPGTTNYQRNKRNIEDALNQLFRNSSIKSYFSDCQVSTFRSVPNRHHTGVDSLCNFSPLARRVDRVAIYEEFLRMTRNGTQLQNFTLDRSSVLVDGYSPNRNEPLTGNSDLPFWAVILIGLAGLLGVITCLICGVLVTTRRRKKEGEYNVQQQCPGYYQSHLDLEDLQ
The experiment can be described thus: cell binding on 293T/hMUC16 cells, read as MFI (the legend calls it ELISA); EC50 table under the plot, unit from the axis Conc.(nM). A general note: ELISA stands for enzyme-linked immunosorbent assay.

Experiment [4] deals with T2, rhesus monkey MUC16 protein (ECT_TM …). Put plainly: flow cytometry, 293T/rhesus MUC16 cells, PE anti-human IgG Fc secondary, MFI; EC50 table under the plot, unit from the axis Conc.(nM). As to the method: The serially diluted anti-human MUC16 antibodies (at an initial concentration of 200 nM, 4-fold dilution, 8 points in total) obtained in the present application were added to the cells, and the cells were incubated at 4° C. for 30 min. The cells were washed twice with PBS, and then fluorescent secondary antibody R-PE-conjugated AffiniPure Goat Anti-Human IgG, Fcγ Fragment Specific (Jackson ImmunoResearch, Cat #109-116-098) was added. The cells were incubated at 4° C. for 30 min. The cells were washed twice with PBS and then resuspended, and finally, fluorescence signals were detected using a BD Accuri C5 (BD Bioscience) flow cytometer.

B1: anti-CD3/MUC16 bispecific antibody MCH7-23L2-MCH7 (bispecific antibody, human IgG1, kappa, L234A L235A)
heavy 1: QVQLVQSGAEVKKPGASVKVSCKASGYTFTDYNIHWVRQAPGQGLEWMGYIYPYNGVSDYNQNFKSRVTMTTDTSTSTAYMELRSLRSDDTAVYYCARWDFGSGYYFDYWGQGTLVTVSSASTKGPSVFPLAPSSKSTSGGTAALGCLVKDYFPEPVTVSWNSGALTSGVHTFPAVLQSSGLYSLSSVVTVPSSSLGTQTYICNVNHKPSNTKVDKKVEPKSCEVQLVESGGGLVQPGGSLKLSCAASGFTFSTYAMNWVRQAPGKGLEWVGRIRSKYNNYATYYADSVKDRFTISRDDSKNTLYLQMNSLKTEDTAVYYCTRHGNFGNSYVSWFAYWGQGTTVTVSSGGGGSGGGGSGGGGSQAVVTQEPSLTVSPGGTVTLTCRSSTGAVTTSNYANWVQQKPGQAPRGLIGGTNKRAPGVPARFSGSLLGGKAALTLSGAQPEDEAEYFCALWYSNLWVFGGGTKLTVLGEPKSSDKTHTCPPCPAPEAAGGPSVFLFPPKPKDTLMISRTPEVTCVVVAVSHEDPEVKFNWYVDGVEVHNAKTKPREEQYNSTYRVVSVLTVLHQDWLNGKEYKCKVSNKALAAPIEKTISKAKGQPREPQVCTLPPSRDELTKNQVSLSCAVKGFYPSDIAVEWESNGQPENNYKTTPPVLDSDGSFFLVSKLTVDKSRWQQGNVFSCSVMHEALHNHYTQKSLSLSPGK
heavy 2: not shown
light: EIVLTQSPATLSLSPGERATLSCRASSSVIYMSWYQQKPGQAPRLLIYGTSTLASGIPARFSGSGSGTDFTLTISSLEPEDFAVYYCQQWSSNPFTFGQGTKLEIKRTVAAPSVFIFPPSDEQLKSGTASVVCLLNNFYPREAKVQWKVDNALQSGNSQESVTEQDSKDSTYSLSSTLTLSKADYEKHKVYACEVTHQGLSSPVTKSFNRGEC
notes: MCH7-23L2ScFv-Hole (VH-CH1-scFv-Fc) + MCH7-KIH-Knob + two light chains MCL4 LC
For the molecule B1, the EC50 (commonly the concentration at which the effect is half-maximal) was 4.21 nM in experiment [1] and 52.2 nM in experiment [2].

B2: humanized anti-MUC16 antibody Hu-L4H7 (antibody, human IgG1, kappa, L234A L235A, V domains shown)
VH: QVQLVQSGAEVKKPGASVKVSCKASGYTFTDYNIHWVRQAPGQGLEWMGYIYPYNGVSDYNQNFKSRVTMTTDTSTSTAYMELRSLRSDDTAVYYCARWDFGSGYYFDYWGQGTLVTVSS
VL: EIVLTQSPATLSLSPGERATLSCRASSSVIYMSWYQQKPGQAPRLLIYGTSTLASGIPARFSGSGSGTDFTLTISSLEPEDFAVYYCQQWSSNPFTFGQGTKLEIKR
notes: human IgG1 with L234A, L235A, D265A, P329A and kappa; Biotinylated in the CA125 ELISA; also called humanized MUC-16 antibody
For the molecule B2, the EC50 was determined as 2.28 nM in experiment [3], 2.73 nM in experiment [1] and 59.4 nM in experiment [2].

B3: anti-MUC16 antibody 776.1(C33S) (antibody, human IgG1, kappa, L234A L235A, V domains shown)
VH: EVQLQQSGPELVKPGASVKISCKASGYTFTDYNIHWVKQSHGKILEWIGYIYPYNGVSDYNQNFKSKATLIVDNSSNTAYMELRSLTSEDSAVYYCARWDFGSGYYFDYWGQGTTLTVSS
VL: QIVLSQSPAILFASPGETVTMTCRASSSVIYMSWNQQKPGSSPKPWIYGTSTLASGVPTRFSGSGSGTSYSLTISRVEAEDAATYYCQQWSSNPFTFGSGTKLEIKR
With B3, the EC50 came to 6.67 nM in experiment [3] and 5.01 nM in experiment [4].
